In patent publication US9539225B2, “Anemia of cancer improving/prophylactic agent” (SBI Pharmaceuticals Co., Ltd., priority 2011, dated 2017):

System: person suffering from chronic lymphatic leukemia (cancerous anemia)
Excerpt: The white blood cell count, the red blood cell count, the hemoglobin, and the blood platelet count before and after treatment are shown in Table 3 below.

Rituxan: anticancer drug used to treat chronic lymphatic leukemia
White blood cell count (2010 Nov. 22, after one cycle of Rituxan begun Nov. 15, 2010, before ALA, 2010 Jan. 13 value 16.48): 1560 µL⁻¹
Anemia as side effect, result in words (human, in vivo): anemia progressed as a side effect
Blood platelet count (human, in vivo): 101000 µL⁻¹
Hemoglobin (human, in vivo): 9.20 g/dL
Red blood cell count (human, in vivo): 2.8e+06 µL⁻¹
